# Source: paper PMC9481563, “Structural insights into the pSer/pThr dependent regulation of the SHP2 tyrosine phosphatase in insulin and CD28 signaling” (Nature Communications, 2022)
# Target: PTP1B catalytic domain, inactive C215S mutant (1-229 as printed) (human) (UniProt P18031)
# Assay: fluorescence polarisation; competitive titration: labelled CF-ppIRS1 and protein both fixed (50-80% saturation), unlabelled competitor peptide varied; triplicates; Kd from cubic fit
# Chain of PTP1B catalytic domain, inactive C215S mutant (1-229 as printed) (human) (P18031 1-229 C215S): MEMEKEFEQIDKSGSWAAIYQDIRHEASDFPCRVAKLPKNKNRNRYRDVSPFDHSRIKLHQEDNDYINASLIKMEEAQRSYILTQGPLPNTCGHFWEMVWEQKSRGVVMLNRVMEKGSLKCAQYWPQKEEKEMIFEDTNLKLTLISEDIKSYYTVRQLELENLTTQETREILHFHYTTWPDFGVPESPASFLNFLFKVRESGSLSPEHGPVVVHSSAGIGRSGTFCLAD
Substance,fold increase of binding over p0CD28,fold increase of binding over p0IRS1
"ppCD28, CD28 peptide dually phosphorylated (pY191 + pT195)",2 fold,–
"ppIRS1, IRS1 peptide dually phosphorylated (pY632 + pS636)",–,19 fold
